# Test results as given in PMC10178127, “Immunomodulatory Effects of the Pea Defensin Psd1 in the Caco-2/Immune Cells Co-Culture upon Candida albicans Infection” (International Journal of Molecular Sciences, 2023).
# Test system: Caco-2 polarized monolayer
# Assay type: in vitro ADME, human
# Protocol: For growing cells, mimicking epithelial barriers in vitro, Caco-2 cells were seeded onto 24-well polycarbonate Millicell cell culture inserts (0.4 μm, 0.6 cm^2 surface area) (Millipore, Burlington, MA, USA), precoated with 0.2% bovine gelatin (Sigma-Aldrich), at a density of 2.5 × 10^5 cells/cm^2. The cells were grown for 21 days in a complete DMEM/F12 (1:1) medium with re-feeding every 2–3 days with a fresh complete medium. The integrity of the Caco-2 cell monolayer was checked by measuring the transepithelial electrical resistance (TEER) using a Millicell-ERS Voltohmmeter (Millipore). Only cell monolayers with TEER > 400 Ωcm^2 (after subtracting TEER in blank inserts without Caco-2 cells) were used in transport across epithelial monolayer and cytokine production experiments.
# The recombinant Psd1 was labeled with fluorescein isothiocyanate isomer I (FITC) (Sigma-Aldrich). For this, 0.5 mg of Psd1 was reconstituted in 20 µL of DMSO, then added to 100 µL of the buffer for coupling (0.1 M sodium carbonate, 0.1 M sodium bicarbonate, pH 10.8) and 3.7 mg of FITC in 100 µL of DMSO. The coupling reaction was conducted for 2 h at room temperature in the dark. In order to purify FITC-Psd1, the reaction mixture was loaded onto the PD10 gel-filtration column (GE Healthcare, Chicago, IL, USA) previously equilibrated with transport buffer (Hank’s balanced salt solution, containing 1 mM MgCl2, 1 mM CaCl2, and 10 mM D(+)glucose, pH 7.4).
# Transport of FITC-Psd1 across the Caco-2 epithelial barrier in vitro was performed in the transport buffer. Bidirectional “apical-to-basolateral” (A→B) and “basolateral-to-apical” (B→A) transport of FITC-Psd1 in the transport buffer across epithelial barrier was investigated. The “apical-to-basolateral” assay was initiated by adding 0.4 mL of 2 µM FITC-Psd1 to the apical (luminal) side of the monolayer and 0.7 mL of the transport buffer (pH 7.4) to the basolateral side of the monolayer. The “basolateral-to-apical” assay was performed in a similar manner, except that 0.4 mL of the transport buffer (pH 7.4) was added to the apical side and 0.7 mL of 2 µM FITC-Psd1 to the basolateral (serosal) side. All solutions were pre-warmed to 37 °C before taking into the transport experiment. Transport in vitro across Caco-2 barriers was conducted for 90 min in 4 independent inserts for each studied transport variant.
# An apparent permeability coefficient (Papp) was calculated for each insert according to the following equation:Papp = (V/(A × Ci)) × ΔC/Δt,(1) where V is the volume of the acceptor chamber, A is the area of the membrane insert, Ci is the initial concentration of Psd1, and ΔC/Δt is the solute flux across the barrier. Uptake ratio:UR = Papp(A→B)/Papp(B→A),(2) and efflux ratio:ER = Papp(B→A)/Papp(A→B),(3) for Psd1 were calculated from averaged apparent permeability coefficients measured in 4 independent inserts. Monolayer integrity was checked by measuring TEER before and after the end of the experiment.
substance,measurement,setting,value
"Psd1: pea defensin from Pisum sativum (UNIPROT P81929), recombinant peptide overexpressed in Escherichia coli (KTCEHLADTYRGVCFTNASCDDHCKNKAHLISGTCHNWKCFCTQNC; UniProt P81929 1-46, looked up)",efflux ratio (ER),Caco-2,2.29
same,uptake ratio (UR),Caco-2,0.44
same,"Apparent permeability A→B coefficients (Papp), range of four inserts","Caco-2, pH 7.4",2.63–3.71 × 10^−6 cm/s
same,Papp A→B,"Caco-2, pH 7.4",3.04 ± 0.24 × 10^−6 cm/s
same,Papp B→A,"Caco-2, pH 7.4",6.96 ± 0.22 × 10^−6 cm/s
